{
  "source": "paper PMC6535718",
  "about": "(Journal of the American Chemical Society, 2019)",
  "origin": "cited, not measured here",
  "molecules": {"B1": {"name": "Bfd: bacterioferritin-associated ferredoxin, cognate partner of BfrB in P. aeruginosa (protein, UniProt Q9HY80 1-73, looked up)", "Bacterioferritin-associated …": "MYVCLCQGVTDNQIRDAIYEGCCSYREVREATGVGTQCGKCACLAKQVVRETLNDLQSAQPVPAFGTTAFVAA"}},
  "biological_target": "BfrB",
  "details": "read-out: Kd of Bfd binding to BfrB; complex in solution",
  "data": [
    {"molecule": "B1", "values": [
      {"measurement": "Kd", "value": "~3000", "unit": "nM"}
    ]}
  ]
}
